In general, Kd refers to a measure of binding affinity in units of concentration.

Where a chain is given by its changes, count along the chain named.

This is an account of results in patent US20250051474A1, “ANTI-CD97 ANTIBODIES AND ANTIBODY-DRUG CONJUGATES” (New York University, priority 2023, published 2025).

To fix the notation:
T1: CD97 (ADGRE5) isoform 1 ectodomain, purified and biotinylated (human, UniProt P48960 21-552, limits assumed, biotinylated in vitro using the BirA enzyme)
T1 construct: the whole entry for isoform 1 is named here; also called CD97 isoform 1; Biotinylated CD97 isoform 1
T1 sequence: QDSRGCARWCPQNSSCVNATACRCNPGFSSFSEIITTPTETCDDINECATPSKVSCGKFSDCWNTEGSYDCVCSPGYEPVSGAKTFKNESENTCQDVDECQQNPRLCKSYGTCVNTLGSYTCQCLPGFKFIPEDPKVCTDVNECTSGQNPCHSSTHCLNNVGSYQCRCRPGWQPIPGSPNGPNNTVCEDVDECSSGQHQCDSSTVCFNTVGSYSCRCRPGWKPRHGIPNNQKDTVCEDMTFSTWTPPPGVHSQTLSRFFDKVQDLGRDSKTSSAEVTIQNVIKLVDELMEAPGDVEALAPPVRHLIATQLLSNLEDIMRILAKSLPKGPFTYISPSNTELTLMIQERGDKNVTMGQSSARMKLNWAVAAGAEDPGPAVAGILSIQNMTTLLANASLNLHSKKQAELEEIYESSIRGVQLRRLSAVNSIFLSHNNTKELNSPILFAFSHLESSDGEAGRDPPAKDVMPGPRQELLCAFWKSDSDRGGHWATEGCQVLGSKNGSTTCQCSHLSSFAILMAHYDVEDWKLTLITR

T2: CD97 (ADGRE5) isoform 2 ectodomain, purified and biotinylated (human, UniProt P48960 21-552, biotinylated in vitro using the BirA enzyme)
T2 construct: the whole entry for isoform 2 is named here; also called CD97 isoform 2
T2 sequence: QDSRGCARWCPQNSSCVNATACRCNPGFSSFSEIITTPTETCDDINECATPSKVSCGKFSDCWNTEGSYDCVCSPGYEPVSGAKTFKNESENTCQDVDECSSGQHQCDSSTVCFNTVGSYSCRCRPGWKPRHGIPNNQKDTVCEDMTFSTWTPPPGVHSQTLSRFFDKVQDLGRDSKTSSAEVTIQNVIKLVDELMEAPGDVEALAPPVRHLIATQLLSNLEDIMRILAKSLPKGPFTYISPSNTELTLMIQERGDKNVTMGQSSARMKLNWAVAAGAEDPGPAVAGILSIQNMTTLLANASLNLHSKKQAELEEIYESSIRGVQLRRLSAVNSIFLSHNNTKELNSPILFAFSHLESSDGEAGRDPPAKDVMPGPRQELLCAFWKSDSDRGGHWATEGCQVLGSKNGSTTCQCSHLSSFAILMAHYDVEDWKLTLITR

T3: CD97 isoform 1 (Homo sapiens, UniProt P48960)
T3 construct: The genes encoding the ectodomains of CD97 (isoforms 1 and 2) and EMR2 (isoforms 1 and 4); inferred from IMAC purification; inferred from BirA biotinylation; made in house; host or cells: expi293F
T3 sequence (P48960 21-552 limits assumed): T1 sequence

T4: EMR2 (EGF-like module-containing mucin-like hormone receptor-like 2) isoform 4 ectodomain, purified and … (UniProt Q9UHX3-4 24-447, limits assumed, biotinylated in vitro using the BirA enzyme)
T4 construct: extracellular domain; Close homolog of CD97 used as specificity control
T4 sequence (looked up): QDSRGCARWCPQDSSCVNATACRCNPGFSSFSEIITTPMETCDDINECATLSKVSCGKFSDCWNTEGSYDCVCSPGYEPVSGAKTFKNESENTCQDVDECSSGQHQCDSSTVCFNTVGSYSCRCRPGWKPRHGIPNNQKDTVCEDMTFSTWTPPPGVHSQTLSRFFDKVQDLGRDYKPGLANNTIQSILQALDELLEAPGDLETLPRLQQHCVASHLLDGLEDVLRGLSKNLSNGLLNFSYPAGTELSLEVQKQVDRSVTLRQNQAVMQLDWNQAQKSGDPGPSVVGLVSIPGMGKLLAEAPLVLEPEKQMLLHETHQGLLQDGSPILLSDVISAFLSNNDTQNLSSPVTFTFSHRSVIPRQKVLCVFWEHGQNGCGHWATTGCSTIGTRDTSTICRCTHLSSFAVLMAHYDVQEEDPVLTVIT

B1: Fab D9 (Fab, V domains shown)
VH: EVQLVESGGGLVQPGGSLRLSCAASGFTVSSSSIHWVRQAPGKGLEWVASISSYYGYTSYADSVKGRFTISADTSKNTAYLQMNSLRAEDTAVYYCARYPMFSYYYWYYGMDYWGQGTLVTVSS
VL: DIQMTQSPSSLSASVGDRVTITCRASQSVSSAVAWYQQKPGKAPKLLIYSASSLYSGVPSRFSGSRSGTDFTLTISSLQPEDFATYYCQQSSGYPVTFGQGTKVEIKR
notes: first discovery campaign; also called Antibody Clone D9
B2: Fab D25 (Fab, V domains shown)
VH: EVQLVESGGGLVQPGGSLRLSCAASGFTFSSSSIHWVRQAPGKGLEWVASISPYYGSTSYADSVKGRFTISADTSKNTAYLQMNSLRAEDTAVYYCARKLEWGMFFWSPYFRALDYWGQGTLVTVSS
VL: B1 VL with G93S, Y94S, P95L, V96I
notes: first discovery campaign; also called Antibody Clone D25
B3: Fab D12 (Fab, V domains shown)
VH: EVQLVESGGGLVQPGGSLRLSCAASGFTFSSSSIHWVRQAPGKGLEWVASISSSSGSTSYADSVKGRFTISADTSKNTAYLQMNSLRAEDTAVYYCARIRHYHWYEIPYWDWAIDYWGQGTLVTVSS
VL: B1 VL with G93S, Y94S, P95L, V96I
notes: first discovery campaign; also called Antibody Clone D12
B4: C27: anti-CD97 antibody clone, VL SEQ ID NO: 21, VH SEQ ID NO: 46 (antibody, V domains shown)
VH: EVQLVESGGGLVQPGGSLRLSCAASGFTLSSSSIHWVRQAPGKGLEWVASIYSYYGSTYYADSVKGRFTISADTSKNTAYLQMNSLRAEDTAVYYCARYRGNMYYWESWYGSYWALDYWGQGTLVTVSS
VL: DIQMTQSPSSLSASVGDRVTITCRASQSVSSAVAWYQQKPGKAPKLLIYSASSLYSGVPSRFSGSRSGTDFTLTISSLQPEDFATYYCQQSSSSLITFGQGTKVEIKRTV
B5: A8 Y100fHA: A8 mutant, VL SEQ ID NO: 9, VH SEQ ID NO: 111 (antibody, V domains shown)
VH: EVQLVESGGGLVQPGGSLRLSCAASGFTISSYSIHWVRQAPGKGLEWVASISPYYGSTSYADSVKGRFTISADTSKNTAYLQMNSLRAEDTAVYYCARSWYYYEQNPYWAQKEEQALDYWGQGTLVTVSS
VL: B4 VL with S92V, S93Y, L95P, I96V
B6: A8 N100bHE: A8 mutant, VL SEQ ID NO: 9, VH SEQ ID NO: 109 (antibody, V domains shown)
VH: B5 VH with N106E, A110Y
VL: B4 VL with S92V, S93Y, L95P, I96V
B7: A8 W100eHA: A8 mutant, VL SEQ ID NO: 9, VH SEQ ID NO: 110 (antibody, V domains shown)
VH: B5 VH with W109A, A110Y
VL: B4 VL with S92V, S93Y, L95P, I96V
B8: Fab 2Z3 (Fab, V domains shown)
VH: EVQLVESGGGLVQPGGSLRLSCAASGFTFSSSSIHWVRQAPGKGLEWVASISSSSGSTSYADSVKGRFTISADTSKNTAYLQMNSLRAEDTAVYYCARVLLGKFWYYNYYEYSAMDYWGQGTLVTVSS
VL: B1 VL with G93S, Y94S, P95L, V96I
notes: second discovery campaign; biotinylated Fab in the bead assay; also called Antibody Clone 2Z3
B9: Fab 2X10 (Fab, V domains shown)
VH: EVQLVESGGGLVQPGGSLRLSCAASGFTFSSSSIHWVRQAPGKGLEWVASISSSSGSTSYADSVKGRFTISADTSKNTAYLQMNSLRAEDTAVYYCARSYWDMYIYWYYYVKQSRGMDYWGQGTLVTVSS
VL: B1 VL with G93S, Y94S, P95L, V96I
notes: second discovery campaign; biotinylated Fab in the bead assay; also called Antibody Clone 2X10
B10: Fab 2A5 (Fab, V domains shown)
VH: EVQLVESGGGLVQPGGSLRLSCAASGFTFSSSSIHWVRQAPGKGLEWVASISSSYGSTSYADSVKGRFTISADTSKNTAYLQMNSLRAEDTAVYYCARGWAYSYWYYSHYYEYEVALDYWGQGTLVTVSS
VL: DIQMTQSPSSLSASVGDRVTITCRASQSVSSAVAWYQQKPGKAPKLLIYSASSLYSGVPSRFSGSRSGTDFTLTISSLQPEDFATYYCQQSKFSSPVTFGQGTKVEIKR
notes: second discovery campaign; biotinylated Fab in the bead assay; also called Antibody Clone 2A5
B11: Fab 2X12 (Fab, V domains shown)
VH: EVQLVESGGGLVQPGGSLRLSCAASGFTISSSSIHWVRQAPGKGLEWVASISSSSSYTSYADSVKGRFTISADTSKNTAYLQMNSLRAEDTAVYYCARMDISYYYYEWGFESAYYGMDYWGQGTLVTVSS
VL: B10 VL with S91W, K92W, F93G, S94P, S95E, P96L
notes: second discovery campaign; biotinylated Fab in the bead assay; also called Antibody Clone 2X12

For one experiment, the target named is T1, CD97 (ADGRE5) isoform 1 ectodomain, …. In words: bead-based binding titration (biotinylated antigen on streptavidin beads, flow cytometry), 1:1 fit [Continued].
Conditions: not given
As to B1, binding was put at a Kd of 3.4 nM.

As to B2, the Kd came to 14 nM.

B3 came in with a Kd of 3 nM.

The target in the next experiment is T2, CD97 (ADGRE5) isoform 2 ectodomain, …. The experiment is described as above.
Conditions: not given
As to B1, the Kd stood at 3.6 nM.

For the molecule B2, the equilibrium dissociation constant (Kd) worked out at 14 nM.

B3 returned a Kd of 3.2 nM.

Another experiment addresses T3, CD97 isoform 1. Nature of the experiment: Bead-based binding assay of Fab clones. Conditions: Fab clones of the first antibody discovery campaign, purified biotinylated antigen on beads. As for the experimental part:
Binding titration of the Fab clones was performed by a bead binding assay, as described previously (7,8). Briefly, biotinylated antigens were immobilized on Dynabeads M-280 streptavidin (Thermo Fisher). The biotinylated Fab clones were titrated into a solution containing the antigen-coated beads. After incubation, the beads were washed three times and incubated with anti-human F(ab′)2-Alexa Fluor 647 (Jackson ImmunoResearch). The beads were further washed three times and analyzed on a HyperCyt (Intellicyt).
The genes encoding the ectodomains of CD97 (isoforms 1 and 2) and EMR2 (isoforms 1 and 4) (FIG. 1) were synthesized (Integrated DNA Technologies) and cloned into the mammalian expression vector pBCAG. The expi293F cells (Thermo Fisher) were transfected with the vectors using the ExpiFectamine 293 transfection kit (Thermo Fisher) according to the manufacturer's protocol. The cells were incubated at 37° C. with 8% CO2. The proteins were purified from the cell culture supernatant by immobilized metal affinity chromatography (IMAC). The purified proteins were biotinylated in vitro using the BirA enzyme in the presence of 0.5 mM Biotin and 10 mM ATP. After the removal of the BirA enzyme by IMAC, the proteins were further purified by size exclusion chromatography using a Superdex 200 10/300 Increase (Cytiva). The purity of the proteins was confirmed by SDS-PAGE.
As for B4, the “binding to CD97 isoform 1” value is on record as “bound only to CD97 isoform 1”.

Still in this experiment, the particulars now being: Fab format, compared with wild type A8.
B5: the “binding of A8 CDRH3 mutants to CD97 isoform 1” value (“binding of A8 CDRH3 mutants” for short) was “substantially reduced or abolished binding to CD97”.

B6: the “binding of A8 CDRH3 mutants” value was “substantially reduced or abolished binding to CD97”.

Regarding B7, the “binding of A8 CDRH3 mutants” value is “substantially reduced or abolished binding to CD97”.

A further experiment concerns the target T4, EMR2 (EGF-like module-containing …). In words: bead-based binding titration (biotinylated antigen on streptavidin beads, flow cytometry).
Conditions: not given
In general terms: A flow cytometer gives signals particle by particle.
Consider B8, for which the binding result is reported as “no binding (tested: 50 nM)”.

On to B9, for which the binding result is given as “no binding (tested: 100 nM)”.

For B10, the binding result was “no binding (tested: 50 nM)”.

On to B11, for which the binding result is “no binding (tested: 100 nM)”.

The target of the next experiment is T1, CD97 (ADGRE5) isoform 1 ectodomain, …. Nature of the experiment: bead-based binding titration (biotinylated antigen on streptavidin beads, flow cytometry), 1:1 fit.
Conditions: not given
B8: binding was characterised by a dissociation constant (Kd) of 7.1 nM.

B9 yielded a Kd of 54 nM.

B10: the Kd is 2.6 nM.

B11 came in with a Kd of 22 nM.

The target in a further experiment is T2, CD97 (ADGRE5) isoform 2 ectodomain, …. Described as above.
Conditions: not given
For B8, the Kd is 7.1 nM.

In turn, B9 registered a Kd of 41 nM.

As for B10, binding was characterised by a dissociation constant (Kd) of 2 nM.

B11 returned a Kd of 29 nM.
